{"source": "patent US20040086528A1", "about": "(PROGENICS PHARMACEUTICALS, published 2004)", "binders": {"B1": {"name": "RANTES, recombinant human (ligand)", "chain": "SPYSSDTTPCCFAYIARPLPRAHIKEYFYTSGKCSNPAVVFVTRKNRQVCANPEKKWVREYINSLEMS"}, "B2": {"name": "macrophage inflammatory protein (MIP)-1β, recombinant human (ligand, UniProt P13236 24-92, looked up)", "chain": "APMGSDPPTACCFSYTARKLPRNFVVDYYETSSLCSQPAVVFQTKRSKQVCADPSESWVQEYVYDLELN"}}, "assay_in_all_cases": "cell-based or functional assay", "key": {"[1]": {"target": "T1, CCR5 R274A/D276A, HA-tagged (human, UniProt P51681 1-352)", "T1 sequence": "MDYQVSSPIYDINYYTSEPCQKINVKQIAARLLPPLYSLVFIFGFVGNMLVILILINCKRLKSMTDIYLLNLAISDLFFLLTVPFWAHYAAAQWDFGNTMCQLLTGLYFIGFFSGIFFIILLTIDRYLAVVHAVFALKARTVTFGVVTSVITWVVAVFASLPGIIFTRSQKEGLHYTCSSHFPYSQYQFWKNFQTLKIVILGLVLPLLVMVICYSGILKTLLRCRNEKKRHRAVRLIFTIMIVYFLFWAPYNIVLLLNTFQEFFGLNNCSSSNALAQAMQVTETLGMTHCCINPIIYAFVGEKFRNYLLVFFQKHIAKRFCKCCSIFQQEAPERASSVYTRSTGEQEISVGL"}, "[2]": {"target": "T2, CCR5 Q188A, HA-tagged (human, UniProt P51681 1-352)", "T2 sequence": "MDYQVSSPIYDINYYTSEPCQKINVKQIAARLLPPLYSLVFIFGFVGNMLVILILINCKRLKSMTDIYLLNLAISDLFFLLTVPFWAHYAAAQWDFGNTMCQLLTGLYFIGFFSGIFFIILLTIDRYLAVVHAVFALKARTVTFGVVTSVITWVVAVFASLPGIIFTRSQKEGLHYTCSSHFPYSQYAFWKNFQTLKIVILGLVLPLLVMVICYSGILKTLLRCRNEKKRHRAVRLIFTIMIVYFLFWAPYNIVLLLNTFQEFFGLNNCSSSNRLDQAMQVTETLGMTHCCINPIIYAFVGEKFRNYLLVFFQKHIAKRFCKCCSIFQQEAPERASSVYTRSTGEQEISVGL"}, "[3]": {"target": "T3, CCR5 E262A, HA-tagged (human, UniProt P51681 1-352)", "T3 sequence": "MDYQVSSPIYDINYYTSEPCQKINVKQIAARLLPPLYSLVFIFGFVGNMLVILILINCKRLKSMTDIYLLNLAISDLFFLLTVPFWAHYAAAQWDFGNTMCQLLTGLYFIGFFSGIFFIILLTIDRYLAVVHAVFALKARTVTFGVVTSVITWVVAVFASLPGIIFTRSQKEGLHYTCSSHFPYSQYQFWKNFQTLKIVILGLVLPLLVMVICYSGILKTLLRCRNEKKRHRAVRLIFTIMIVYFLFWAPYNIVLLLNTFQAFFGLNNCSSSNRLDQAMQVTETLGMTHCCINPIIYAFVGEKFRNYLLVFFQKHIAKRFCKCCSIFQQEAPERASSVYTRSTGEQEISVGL"}, "[4]": {"target": "T4, CCR5 Y184A, HA-tagged (human, UniProt P51681 1-352)", "T4 sequence": "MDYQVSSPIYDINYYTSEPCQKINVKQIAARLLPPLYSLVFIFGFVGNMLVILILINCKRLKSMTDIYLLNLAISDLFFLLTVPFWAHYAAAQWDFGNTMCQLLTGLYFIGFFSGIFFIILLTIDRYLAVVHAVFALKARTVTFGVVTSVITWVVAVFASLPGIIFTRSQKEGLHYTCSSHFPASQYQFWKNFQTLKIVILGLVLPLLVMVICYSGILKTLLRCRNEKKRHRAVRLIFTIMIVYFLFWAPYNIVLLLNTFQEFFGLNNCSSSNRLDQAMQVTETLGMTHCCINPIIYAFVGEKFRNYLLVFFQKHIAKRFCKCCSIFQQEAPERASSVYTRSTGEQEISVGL"}}}
{"binder": "B1", "values": [{"measurement": "relative % inhibition of NLluc/JR-FL entry into U87MG-CD4 cells by 2 µg/ml chemokine (wild-type = 100)", "setting": "[1]", "value": 33, "unit": "%"}, {"measurement": "relative % inhibition of NLluc/JR-FL entry into U87MG-CD4 cells by 2 µg/ml chemokine (wild-type = 100)", "setting": "[2]", "value": 51, "unit": "%"}, {"measurement": "relative % inhibition of NLluc/JR-FL entry into U87MG-CD4 cells by 2 µg/ml chemokine (wild-type = 100)", "setting": "[3]", "value": 100, "unit": "%"}, {"measurement": "relative % inhibition of NLluc/JR-FL entry into U87MG-CD4 cells by 2 µg/ml chemokine (wild-type = 100)", "setting": "[4]", "value": 36, "unit": "%"}]}
{"binder": "B2", "values": [{"measurement": "relative % inhibition of NLluc/JR-FL entry into U87MG-CD4 cells by 2 µg/ml chemokine (wild-type = 100)", "setting": "[1]", "value": 36, "unit": "%"}, {"measurement": "relative % inhibition of NLluc/JR-FL entry into U87MG-CD4 cells by 2 µg/ml chemokine (wild-type = 100)", "setting": "[2]", "value": 75, "unit": "%"}, {"measurement": "relative % inhibition of NLluc/JR-FL entry into U87MG-CD4 cells by 2 µg/ml chemokine (wild-type = 100)", "setting": "[3]", "value": 102, "unit": "%"}, {"measurement": "relative % inhibition of NLluc/JR-FL entry into U87MG-CD4 cells by 2 µg/ml chemokine (wild-type = 100)", "setting": "[4]", "value": 68, "unit": "%"}]}
